The values that follow come from patent publication US20250101098A1 (R P SCHERER TECHNOLOGIES, published 2025).

In test [1] the target is T1, human nectin-4 protein expressed on the surface of cells (human, UniProt Q96NY8 32-510).
T1 sequence: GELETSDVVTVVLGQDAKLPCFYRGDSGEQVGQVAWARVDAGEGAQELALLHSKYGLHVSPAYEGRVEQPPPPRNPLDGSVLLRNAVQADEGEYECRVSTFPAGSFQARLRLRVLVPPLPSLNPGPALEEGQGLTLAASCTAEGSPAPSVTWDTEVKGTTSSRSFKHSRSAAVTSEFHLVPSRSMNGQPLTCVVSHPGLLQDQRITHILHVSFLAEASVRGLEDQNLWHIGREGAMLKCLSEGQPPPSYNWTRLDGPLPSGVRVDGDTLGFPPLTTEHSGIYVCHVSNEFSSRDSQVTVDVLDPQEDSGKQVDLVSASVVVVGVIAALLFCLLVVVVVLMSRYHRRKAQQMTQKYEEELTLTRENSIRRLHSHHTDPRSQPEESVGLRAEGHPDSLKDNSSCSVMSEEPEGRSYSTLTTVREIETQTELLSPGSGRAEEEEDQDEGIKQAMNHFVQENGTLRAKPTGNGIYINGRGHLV
As to the kind of experiment: cell-based or functional assay.

The target in test [2] is T2, recombinant human Nectin-4-His protein (human, UniProt Q96NY8 32-349).
T2 construct: Rescreening antigen and bought ELISA antigen are treated as one molecule; also called human Nectin-4-His tagged; Ag1; not shown: His tag
T2 sequence: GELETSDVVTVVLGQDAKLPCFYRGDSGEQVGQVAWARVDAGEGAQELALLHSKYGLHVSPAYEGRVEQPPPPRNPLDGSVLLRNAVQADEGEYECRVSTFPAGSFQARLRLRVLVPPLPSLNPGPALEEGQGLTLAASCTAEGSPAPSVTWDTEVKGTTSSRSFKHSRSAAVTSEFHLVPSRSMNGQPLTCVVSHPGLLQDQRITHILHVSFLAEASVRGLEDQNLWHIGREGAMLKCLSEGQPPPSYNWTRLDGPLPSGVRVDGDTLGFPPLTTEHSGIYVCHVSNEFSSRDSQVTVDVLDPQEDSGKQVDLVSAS
As to the kind of experiment: ELISA, coated antigen.

Changes are numbered by the printed parent chain.

B1: Nectin-4 5D9 VH1/VL1 (antibody, V domains shown)
VH: QVQLKESGPGLVQPSETLSLTCTVSGFSITNYGVHWIRQSPGKGLEWLGVIWSGGSTDYNAAFVSRVTISRDNSKSQVFFKLNSVQADDTAVYYCARSGKWYYFDYWGQGTTVTVSS
VL: DIQMTQSPASLSASVGDTVTITCRASQNIYSNLAWYQQKQGKSPQLLVYAATNLADGVPSRFSGSGSGTQYTLKINSLQSEDFGTYYCQHFWGTPTFGGGTKVEIK
notes: Humanized; also called 5D9 VH variant 1 / 5D9 VL variant 1
Regarding B1, in test [1], the “Cell kill IC50, HekNectin4” value was 0.249 nM; the “Cell kill IC50, MDA-MB468” value was 1.42 nM; the “Cell kill IC50, SKBR3” value was found to be 15 nM. In test [2], the 50% effective concentration (EC50) is 0.225 nM.

B2: Nectin-4 5D9 VH2/VL2 (antibody, V domains shown)
VH: B1 VH with K5Q, Q13K, S40P, A62S, F63L, N73T, V78F, F80L
VL: B1 VL with A9S, S43A, Q45K, Q70D, Y71F, S80P, G84A
notes: Humanized; also called 5D9 VH variant 2 / 5D9 VL variant 2
In the case of B2, in test [1], the “Cell kill IC50, HekNectin4” value is 55.5 nM; the “Cell kill IC50, MDA-MB468” value came to 19.3 nM; the “Cell kill IC50, SKBR3” value came to 14.4 nM. In addition, the EC50 in test [2] came to 172 nM.

B3: Nectin-4 5D9 VH1/VL5 (antibody, V domains shown)
VH: B1 VH
VL: DIQMTQSPSSLSASVGDRVTITCRASQSIYSNLAWYQQKPGKAPKLLVYAATNLQSGVPSRFSGSGSGTDFTLTISSLQPEDFATYYCQHFWGTPTFGGGTKVEIK
notes: Humanized; also called 5D9 VH variant 1 / 5D9 VL variant 5
B3: in test [1], the “Cell kill IC50, HekNectin4” value worked out at 1.41 nM; the “Cell kill IC50, MDA-MB468” value was 10.2 nM; the “Cell kill IC50, SKBR3” value is 10.1 nM. The concentration for a half-maximal effect (EC50) in test [2] was determined as 0.346 nM.

B4: Nectin-4 5D9 VH1/VL2 (antibody, V domains shown)
VH: B1 VH
VL: B1 VL with A9S, S43A, Q45K, Q70D, Y71F, S80P, G84A
notes: Humanized; also called 5D9 VH variant 1 / 5D9 VL variant 2
For the molecule B4, in test [1], the “Cell kill IC50, HekNectin4” value came out at 3.35 nM; the “Cell kill IC50, MDA-MB468” value was 10.3 nM; the “Cell kill IC50, SKBR3” value was found to be 9.85 nM. In addition, in test [2], the EC50 was 0.368 nM.

B5: Nectin-4 5D9 VH1/VL3 (antibody, V domains shown)
VH: B1 VH
VL: B3 VL with Q55A
notes: Humanized; also called 5D9 VH variant 1 / 5D9 VL variant 3
With B5, in test [1], the “Cell kill IC50, HekNectin4” value turned out to be 2.94 nM; the “Cell kill IC50, MDA-MB468” value turned out to be 10.3 nM; the “Cell kill IC50, SKBR3” value came to 9.36 nM. The concentration for a half-maximal effect (EC50) in test [2] turned out to be 0.321 nM.

B6: Nectin-4 5D9 VH2/VL1 (antibody, V domains shown)
VH: B1 VH with K5Q, Q13K, S40P, A62S, F63L, N73T, V78F, F80L
VL: B1 VL
notes: Humanized; also called 5D9 VH variant 2 / 5D9 VL variant 1
For B6, in test [1], the “Cell kill IC50, HekNectin4” value stood at 3.93 nM; the “Cell kill IC50, MDA-MB468” value amounted to 21.4 nM; the “Cell kill IC50, SKBR3” value is 14.7 nM. Further, in test [2], the EC50 was 0.279 nM.

B7: Nectin-4 5D9 VH1/VL4 (antibody, V domains shown)
VH: B1 VH
VL: B3 VL with Q27E, S28N, Q55A, S56D, F71Y
notes: Humanized; also called 5D9 VH variant 1 / 5D9 VL variant 4
For the molecule B7, in test [1], the “Cell kill IC50, HekNectin4” value came out at 0.277 nM; the “Cell kill IC50, MDA-MB468” value amounted to 5.17 nM; the “Cell kill IC50, SKBR3” value was determined as 9.02 nM. Moreover, the half-maximal effective concentration (EC50) in test [2] is 0.228 nM.

B8: Nectin-4 5D9 VH3/VL3 (antibody, V domains shown)
VH: QVQLQESGPGLVKPSETLSLTCTVSGGSITNYGVHWIRQPPGKGLEWLGVIWSGGSTDYNPSLKSRVTISVDTSKNQFSLKLSSVTAADTAVYYCARSGKWYYFDYWGQGTLVTVSS
VL: B3 VL with Q55A
notes: Humanized; also called 5D9 VH variant 3 / 5D9 VL variant 3
With B8, in test [1], the “Cell kill IC50, HekNectin4” value worked out at 27.1 nM; the “Cell kill IC50, MDA-MB468” value stood at 15.6 nM; the “Cell kill IC50, SKBR3” value was 10.6 nM. The EC50 in test [2] is 23.9 nM.

B9: Nectin-4 5D9 VH2/VL3 (antibody, V domains shown)
VH: B1 VH with K5Q, Q13K, S40P, A62S, F63L, N73T, V78F, F80L
VL: B3 VL with Q55A
notes: Humanized; also called 5D9 VH variant 2 / 5D9 VL variant 3
As to B9, in test [1], the “Cell kill IC50, HekNectin4” value worked out at 33.7 nM; the “Cell kill IC50, MDA-MB468” value was found to be 21.4 nM; the “Cell kill IC50, SKBR3” value was 15.9 nM. The EC50 in test [2] stood at 108 nM.

B10: Nectin-4 5D9 VH2/VL5 (antibody, V domains shown)
VH: B1 VH with K5Q, Q13K, S40P, A62S, F63L, N73T, V78F, F80L
VL: B3 VL
notes: Humanized; also called 5D9 VH variant 2 / 5D9 VL variant 5
B10: in test [1], the “Cell kill IC50, HekNectin4” value was found to be 182 nM; the “Cell kill IC50, MDA-MB468” value came to 252 nM; the “Cell kill IC50, SKBR3” value came to 234 nM. For the same molecule, the 50% effective concentration (EC50) in test [2] came to 14.7 nM.
